Results on one molecule are retold here after article PMC5019122.

The target in this test is BG505-10MUT (HIV-1 (isolate BG505)). The experiment in a line: SPR. (Surface plasmon resonance follows binding to a sensor surface in real time, without labels.)

B1: MutHGLL121 (fully mature PGT121 IgH with predicted germline IgL) (antibody, V domains shown)
VH: QMQLQESGPGLVKPSETLSLTCSVSGASISDSYWSWIRRSPGKGLEWIGYVHKSGDTNYSPSLKSRVNLSLDTSKNQVSLSLVAATAADSGKYYCARTLHGRRIYGIVAFNEWFTYFYMDVWGNGTQVTVSS
VL: SYVLTQPPSVSVAPGQTARITCGGNNIGSKSVHWYQQKPGQAPVLVVYDDSDRPSGIPERFSGSNSGNTATLTISRVEAGDEADYYCQVWDSSSDHPWVFGGGTKLTVL
In general, Kd refers to the free concentration of one partner at which half of the binding sites on the other are occupied at equilibrium, for simple one-to-one binding. Read a low Kd as tighter binding. B1 displayed a dissociation constant Kd of 47 µM.
